Measurements from patent publication US20110059142A1, “ENCAPSULATION OF BIOLOGICALLY ACTIVE AGENTS” (priority 2008, published 2011).

Assay: In vivo evaluation of HIP-PBCA nanoparticle delivery of dalargin to the brain, intravenous
Details: mouse, i.v., 20 minutes following injection, LC-MS-MS
Description: The ability of the HIP-PBCA nanoparticles to deliver their peptide load to the brain was determined in vivo in the mouse model. HIP-PBCA nanoparticles containing encapsulated dalargin using the HIP process were compared to HIP-PBCA nanoparticles that had had the peptide adsorbed onto the particle surface as reported by Kreuter et al. The nanoparticles were prepared for brain delivery via the intravenous route by coating their surface with polysorbate 80 surfactant. Briefly, the nanoparticles were incubated in PBS containing 1% w/v surfactant for 30 minutes prior to injection. The surfactant has been reported in the literature to indirectly target the nanoparticles to the brain by promoting adsorption of serum apolipoproteins onto the nanoparticle surface. This allows the particles to bind to the apolipoprotein receptor on the blood brain barrier and transcytose to reach the brain. The following formulations were compared: • 1. HIP-PBCA nanoparticles alone (5:1 HIP content) • 2. HIP-PBCA nanoparticles alone (10:1 HIP content) • 3. Dalargin in solution (2.0 mg/kg) • 4. HIP-PBCA nanoparticles with dalargin adsorbed onto the surface (2.0 mg/kg total dose used in formulation) • 5. […]
The mice were sacrificed at 20 minutes following injection, and the brains and blood samples collected and analysed for the presence of peptide by LC-MS-MS. […]

## dalargin (YAGFLR; Humanised sequence of mus musculus and homo sapiens) [9: YAGFLR]
  Dalargin levels in the brain (detectability): detectable in the brain only when encapsulated within the particles using the HIP process
